Measurements from patent US20130157289A1 (Genentech, published 2013).
Where a chain is given by its changes, count along the chain named. Names may count otherwise.

Legend:
human STEAP-1 [1] = target: T1, human STEAP-1 (human, UniProt Q9UHE8 1-339); experiment: FACS of display-normalised Fab phage, aligned histograms; no cell name on the panel, traces as in FIG. 6A (LB50)
T1 construct: Six-transmembrane cell surface antigen; Exogenous full length STEAP-1 stably expressed in 293 cells (LB50, LB48, LB53) and PC3 cells (PS5.4); endogenous in LNCaP / LNCaP-BR cells; also called Six Transmembrane Epithelial Antigen of the Prostate 1
Description: Phage expressing Fab variants were first assessed for their Fab display level using an phage ELISA used to detect a […] fused to the light chain of the Fab. MaxiSorp microtiter plates were coated with anti-gD 1766 at 10 μg/ml in PBS over night and then blocked with Casein Blocker. Phage from culture supernatants were serially diluted in PBST containing 0.5% BSA in a tissue culture microtiter plate and transferred to the coated wells for 1 h to capture the Fab displaying phage. The plate was washed with PBST and HRP conjugated anti-M13 (Amersham Pharmacia Biotech) was added (1:5000 in PBST containing 0.5% BSA) for 40 min. The plate was washed with PBST and developed by adding Tetramethylbenzidine substrate (Kirkegaard and Perry Laboratories, Gaithersburg, Md.). The absorbance at 405 nm was used as an estimate of the Fab display level on the surface of the phage. Phage preparations were normalized for display by dilution. Low displaying phage (e.g. the chimera) were used neat for FACS analysis.
For FACS analysis of phage binding, cells were removed from the plate using 2 mM EDTA, collected in a 15 mL conical bottom tube and pelleted by centrifugation. Cells (5×10⁵ cells per sample) were re-suspended in 100 μL of phage (normalized by display level) in FACS buffer (1% FBS, PBS with 2 mM EDTA) and incubated for 1-2 hours on ice. Samples were washed twice with FACS buffer by centrifugation. Anti-M13 5G7 control antibody (Genentech, Inc. South San Francisco, Calif.) was added at 2 μg/mL and incubated on ice for at least 45 minutes. Samples were washed twice with FACS buffer by centrifugation. A 1:200 dilution of anti-mouse PE (R-phycoerythrin goat anti-mouse IgG Fcy Fragment, Jackson Immunoresearch) was added and incubated on ice for 30 minutes. Samples were again washed twice with FACS buffer by centrifugation and analyzed by FACS.

human STEAP-1 [2] = target: T1, human STEAP-1; experiment: Scatchard analysis on 293 STEAP-1 NT LB50 cells
From the text: (§1) IgG was purified with Protein G affinity chromatography.

human STEAP-1 [3] = target: T1, human STEAP-1; experiment: Scatchard analysis on 293-LB50 cells, average value
From the text: as §1

human STEAP-1 [4] = target: T1, human STEAP-1; experiment: Scatchard analysis on LNCaP-BR cells, average value
From the text: as §1

human STEAP-1 [5] = target: T1, human STEAP-1; experiment: Scatchard analysis on LNCaP.BR cells, Assay 740; displacement curve and Scatchard plot
From the text: as §1

human STEAP-1 [6] = target: T1, human STEAP-1; experiment: Scatchard analysis on 293.LB50 cells, Assay 737; displacement curve and Scatchard plot
From the text: as §1

human STEAP-1 [7] = target: T1, human STEAP-1; experiment: Scatchard analysis on 293.LB50 cells, Assay 738; displacement curve and Scatchard plot
From the text: as §1

human STEAP-1 [8] = target: T1, human STEAP-1; experiment: Scatchard analysis on 293 cells transiently expressing human STEAP-1 (293-Transient Human Steap1)
From the text: as §1

[9] = target: T2, cynomolgus monkey STEAP-1 (cynomolgus monkey, UniProt Q9UHE8 1-339 (human entry)); experiment: Scatchard analysis on 293 cells transiently expressing cynomolgus STEAP-1 (293-Transient Cyno Steap1); side note: Same Affinity for Human & Cyno
T2 construct: the expressing cell line is not described; also called cyno STEAP-1

human STEAP-1 [10] = target: T1, human STEAP-1; experiment: Scatchard analysis on LNCaP.BR cells, Assay 739; displacement curve (Bound/Total against Total, nM) and Scatchard plot (Bound/Free against Bound, pM)
From the text: as §1

T1 sequence (Q9UHE8 other isoform, or with tags, fused parts or gaps): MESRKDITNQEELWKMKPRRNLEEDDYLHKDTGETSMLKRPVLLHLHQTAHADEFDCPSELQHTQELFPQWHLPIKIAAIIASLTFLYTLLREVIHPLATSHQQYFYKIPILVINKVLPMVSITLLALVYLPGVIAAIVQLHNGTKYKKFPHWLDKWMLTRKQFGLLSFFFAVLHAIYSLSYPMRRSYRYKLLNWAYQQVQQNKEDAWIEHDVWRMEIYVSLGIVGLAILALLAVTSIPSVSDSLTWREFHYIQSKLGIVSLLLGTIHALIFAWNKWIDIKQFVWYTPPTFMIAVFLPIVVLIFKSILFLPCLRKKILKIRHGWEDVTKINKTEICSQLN
T2 sequence (Q9UHE8 other isoform, or with tags, fused parts or gaps): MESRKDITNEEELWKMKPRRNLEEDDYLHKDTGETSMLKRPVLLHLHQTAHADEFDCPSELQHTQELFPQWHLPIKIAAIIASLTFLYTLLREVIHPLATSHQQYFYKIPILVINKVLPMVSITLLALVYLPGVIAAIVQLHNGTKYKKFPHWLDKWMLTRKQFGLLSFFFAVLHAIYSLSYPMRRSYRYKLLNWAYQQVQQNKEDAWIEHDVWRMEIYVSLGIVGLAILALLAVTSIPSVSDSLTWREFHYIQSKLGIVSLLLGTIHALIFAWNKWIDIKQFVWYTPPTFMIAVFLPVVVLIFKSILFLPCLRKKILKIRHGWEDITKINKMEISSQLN

B1: 37 Phage (Fab, V domains shown)
VH: EVQLVESGGGLVQPGGSLRLSCAASGYSITSDYAWNWIRQAPGKGLEWVGYISNSGSTSYNPSLKSRFTISRDNSKNTLYLQMNSLRAEDTAVYYCARERNYDYDDYYYAMDYWGQGTLVTVSS
VL: DIQMTQSPSSLSASVGDRVTITCKSSQSLLYRSNQKNYLAWYQQKPGKAPKLLIYWASTRESGVPSRFSGSGSGTDFTLTISSLQPEDFATYYCQQYYNYPRTFGQGTKVEIKR
notes: monovalent Fab-g3 phage display; also called V37I variant of the 120 graft
Q: Does B1 bind (human STEAP-1 [1])?
A: Result: binds

B2: 67 Phage (Fab, V domains shown)
VH: B1 VH with I38V, F68I
VL: B1 VL
notes: monovalent Fab-g3 phage display; also called F67I variant of the 120 graft
Q: Does B2 bind (human STEAP-1 [1])?
A: Result: binds

B3: humanized anti-STEAP-1 120v.24 (antibody, name in Kabat numbering, V domains shown)
VH: B1 VH with A24V, I38V
VL: B1 VL
notes: constant regions not specified; also called humanized 120v.24 (clone 67); humanized version 24
Q: With B3 as the binder, how does the “fold improvement in Kd over the 120 chimera and murine M2-120.545” value (human STEAP-1 [2]) read?
A: Its value is 2 fold.

B4: Original Thio 120V24 (antibody, V domains shown)
VH: B1 VH with A24V, I38V
VL: B1 VL
notes: cysteine engineered form of humanized 120.v24; also called Orig Thio PUR 12813; Thio Mab
Q: What does the source list for B4?
A: Kd (human STEAP-1 [3]): 1.9 nM; Kd (human STEAP-1 [4]): 1.4 nM; Kd (human STEAP-1 [5]): 1.7 nM; Kd (human STEAP-1 [6]): 1.7 nM; Kd (human STEAP-1 [7]): 2 nM; Kd (human STEAP-1 [8]): 1.4 nM; Kd [9]: 1.1 nM; Kd (human STEAP-1 [10]): 1.1 nM

B5: 48 Phage (Fab, V domains shown)
VH: B1 VH with I38V, V49M
VL: B1 VL
notes: monovalent Fab-g3 phage display; also called V48M variant of the 120 graft
Q: Does B5 bind (human STEAP-1 [1])?
A: Result: binds
